Here are results for 6 molecules from patent publication US20200262930A1 (YALE UNIVERSITY, published 2020).

B1: H1-L1 (humanized anti-YKL-40 antibody) (antibody, V domains shown)
VH: QIQLVQSGSELKKPGASVKISCKASGYTFTNYGMNWVRQAPGQGLEWMGWINTYTGEPTYADDFKGRFVFSLDTSVSTAYLQISSLKAEDTSVYFCARLGYGKFYVMDYWGQGTSVTVSS
VL: DVVMTQSPLSLPVTLGQPASISCRSSQSLVHSNGNTYLNWYQQRPGQSPRLLIYKVSNRFSGVPDRFSGSGSGTDFTLKISRVEAEDVGVYFCSQSTHVTWTFGGGTKLEIK
notes: Humanized, kappa light chain, human IgG (detected with goat anti-human IgG-HRP; the PK assay uses an anti-IgG1 capture antibody); also called anti-YKL-40 H1-L1
B2: H11-L1 (humanized anti-YKL-40 antibody) (antibody, V domains shown)
VH: QIQLVQSGPEVKQPGASVKISCKASGYTFTNYGMNWVKQAPGQGLKWMGWINTYTGEPTYAQGFTGRFVFSLDTSASTAYLQISSLKAEDMSTYFCARLGYGKFYVMDYWGQGTSVTVSS
VL: B1 VL
notes: Humanized, human IgG
B3: H4-L1 (humanized anti-YKL-40 antibody) (antibody, V domains shown)
VH: B1 VH with E46K
VL: B1 VL
notes: Humanized, human IgG (detected with goat anti-human IgG-HRP)
B4: H11-L5 (humanized anti-YKL-40 antibody) (antibody, V domains shown)
VH: B2 VH
VL: B1 VL with V2I, S7T, P12S, L15P, R24K, N39H, Q42L, R44K, R50Q, F92Y
notes: Humanized variant
B5: H12-L8 (humanized anti-YKL-40 antibody) (antibody, V domains shown)
VH: B2 VH with T28S, N31T, K46E, Q62D, G63D, T65K
VL: B1 VL with N39H, F92Y
notes: Humanized variant
B6: H2-L1 (humanized anti-YKL-40 antibody) (antibody, V domains shown)
VH: B1 VH with D62Q, D63G, K65T
VL: B1 VL
notes: Humanized variant

Substitutions are numbered along the chain they refer to.

T1 sequence (Q61362 30-389 limits assumed): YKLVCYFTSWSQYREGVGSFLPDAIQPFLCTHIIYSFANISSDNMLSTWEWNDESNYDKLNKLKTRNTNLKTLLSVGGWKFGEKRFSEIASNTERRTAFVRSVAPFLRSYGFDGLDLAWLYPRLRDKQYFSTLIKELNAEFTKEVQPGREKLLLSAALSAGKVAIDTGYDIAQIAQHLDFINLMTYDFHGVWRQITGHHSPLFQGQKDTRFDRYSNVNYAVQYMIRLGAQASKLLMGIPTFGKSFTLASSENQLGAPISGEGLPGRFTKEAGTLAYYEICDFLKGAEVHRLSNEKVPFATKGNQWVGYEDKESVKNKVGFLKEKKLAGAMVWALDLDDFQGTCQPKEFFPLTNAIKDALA

One experiment has as its target T1, murine BRP-39 (murine homologue of CHI3L1/YKL-40) (murine, UniProt Q61362 30-389, limits assumed).
T1 construct: also called murine YKL-40
The experiment can be described thus: titration ELISA. On the technique in general: An ELISA detects its analyte on a solid surface through an enzyme-linked reagent.
Regarding B1, the “fold difference in affinity among species (human highest)” value (shortened to “fold difference”) was no more than 2 fold.
Consider B2, for which the “fold difference” value is no more than 2 fold.
As for B3, the “fold difference” value was no more than 2 fold.

The next experiment addresses T2, primate (Cynomolgus monkey) CHI3L1/YKL-40 (Cynomolgus monkey, UniProt A0A7N9DGM0 12-373).
T2 construct: also called primate CHI3L1/YKL-40
The experiment can be described thus: titration ELISA.
Turning to B1, the “fold difference” value was no more than 2 fold.
The same measure, in the same setting: the figure for B2 is no more than 2 fold; for B3 it is no more than 2 fold.

The target in the next experiment is T3, human CHI3L1/YKL-40 (human, UniProt P36222 22-383).
T3 construct: also called human YKL-40
T3 sequence (P36222 22-383 limits assumed): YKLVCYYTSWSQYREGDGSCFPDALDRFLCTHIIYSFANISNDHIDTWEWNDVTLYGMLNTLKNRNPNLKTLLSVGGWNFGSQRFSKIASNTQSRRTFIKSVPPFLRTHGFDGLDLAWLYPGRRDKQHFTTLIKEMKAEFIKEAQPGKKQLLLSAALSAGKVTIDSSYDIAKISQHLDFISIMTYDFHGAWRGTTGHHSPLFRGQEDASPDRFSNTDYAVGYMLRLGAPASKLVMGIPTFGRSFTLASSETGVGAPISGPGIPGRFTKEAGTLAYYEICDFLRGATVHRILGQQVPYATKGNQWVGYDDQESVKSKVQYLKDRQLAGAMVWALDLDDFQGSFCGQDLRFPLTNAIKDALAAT
The experiment can be described thus: titration ELISA against human YKL-40.
Take B1: the binding result is “binds”.
The same measure, in the same setting: next, B4: “binds”; B2: “binds”.
Take B3: the binding result is reported as “binds”.
Still for that read-out and setting: next, B5: “binds”; B6: “binds”.

The next experiment has as its target T1, murine BRP-39 (murine homologue of …). The experiment can be described thus: titration ELISA against murine BRP-39.
B4: the binding result is reported as “binds”.
On the same count and under the same terms, next, B5: “binds”; B6: “binds”.
